Test results reported in the DeepSol protein solubility set.

Assay: soluble on expression in E. coli; label from the status in PepcDB or PDB records

| Sequence | soluble on expression in E. coli |
| --- | --- |
| SSTHGSRFPLCGGRRDHKGLTHIFNPPPKRFESILEGLFGPALLKDLSLFKDCEPESISDWTFDENCLFCCLRRDKVKGHLVGLDEPASGAGQEALLKQEQAKIIRFERQAEEFLNAVFYRKDSPWVSDPNIPLVAREIMQRMIQQFAAEYTSKNSSTQDPSQPNSTKNQSLPKASPVTTSPTAATTQNPVLSKLLMADQDSPLDLTVRKSQSEPSEQDGVLDLSTKKSPCAGSTSLSHSPGCSSTQGNGRPGRPSQYRPDGLRSGDGVPPRSLQDGTREGFGHSTSLKVPLARSLQISEELLSRNQLSTAASLGPSGLQNHGQHLILSREASWAKPHYEFNLSRMKFRGNGALSNISDLPFLAENSAFPKMALQAKQDGKKDVSHSSPVDLKIPQVRGMDLSWESRTGDQYSYSSLVMGSQTESALSKKLRAILPKQSRKSMLDAGPDSWGSDAEQSTSGQPYPTSDQEGDPGSKQPRKKRGRYRQYNSEILEEAISVVMSGKMSVSKAQSIYGIPHSTLEYKVKERLGTLKNPPKKKMKLMRSEGPDVSVKIELDPQGEAAQSANESKNE | soluble |
| MKVEPYRLVVNEHQVNNTNSKENLKIVQLSDLHIKKDFNADRLDKVIQKTNEQNPDFIIFSGDLYDNYSQYNENEAVISKLKSLKAKYGKIAIWGNRDYGGGAVKEYANIMAESDFSLLRNENQVFTLDNGKKILFTGLDDALLGNPQFPSPNQMAETSYDILLTHEPDEVSQYQNKGYELILSGHSHGGQINVPLIPQIQKKATALMSHANNYTGGLYQLGANEKLYVNTGIGTTHLSARFGVAPEIAVLTFLEHHHHHH | not soluble |
| MQIDVNVEVKEKPTGAVMFGAGYSNMEGLILSGSVAQDNIFGTGKFVNLMVNTGSVNKTYSLSYTDPYFTKDGVTAGLDLYKRVLNTRTLSSVMNFNTDTLGAGLRFGIPINENDSIMGGLGAEQTTIDLGPDSPQRNIDFVNKFGRTTINIPATLSWRRDGRDSAIWTTSGTTQRVFAEVGLPGGDLTYYKLSYDLRWYFPITEIFTLMLNGELGYGDGYSGKELPFFKNFFAGGNTSVRGYNISSLGPRDATNRTLGGNKRAVGNIEVLFPMPGMRNDRTVRLSAFLDGGTVWGPGGVRPDQEGLRYSAGIAVTWISPMGPLKISVAQPLNSQPGDNIQRFQFQFGQQFLEHHHHHH | not soluble |
| MAHHHHHHMPSMDSLRTAVDNAPLLVNLLRLIRNARSPNYKDHEKGPVTFHFGGLSMRDTGSYEAAEELWRQSSWSSGALAPNAAGPFRGPLHLVVYLNHSPVEVWTLQDYREPATDHSVPRDFEQLEALNTLVRVLFAHLRCQDIYGVVLQSCVTATDDANNHFPASPNGNVSSPPHFPPPRNASLSRARTPHSPANHVSLRLFRSAEDCPTMPVHARRQYLWSSDDFVRVDVTMDRTWRHHSWVQPGTQAASPVLAAGDRERDTAVCAAGERSSPIRTASPGLRHFGSEGDTRSQSISPEAMGSLDKSSLPTPYLAPAATLALSSHLSRSPRTNLSPLMPGSRLSPAQGVSEFALPPADVSSPFDCDRSRQSRSSPPIMHSCVFASSHPAGGGGATYTAAVGAVNQVEDAVWLSNAEHVRRMGTLVCSRKQSPSASSSPVMGKKPRNSFISQKHEMGSLVPSISIGALSGIGFDRRLLSSDVDLEDLAAETASSGSSASVPNSAAMEQLVSLLGLCSKVKLQHVPSAPFGDLVLSLNLREVP | not soluble |
| ATPAAQASDDRYEVTQQRNPDAACLDCHKPDTEGMHGKHASVINPNNKLPVTCTNCHGQPSPQHREGVKDVMRFNEPMYKVGEQNSVCMSCHLPEQLQKAFWPHDVHVTKVACASCHSLHPQQDTMQTLSDKGRIKICVDCHSDQRTNPNFNPASVPLLKEQP | soluble |
| MENFQPHKQCGYGVIMRLTSKGRYAVTAMLDVALHSQQNPVPLADISERQGISLSYLEQLFSKLRKAGLVASVRGPGGGYRLGMDSYAISIGTVIAAVDESVDATKCNGKGDCQGGTRCLTHTLWRDLSSRITDFLNNITLGELMMDNEVLEVSDRQDLHLAVSQRVSQNNSNTVTIGAAPFGINVRS | not soluble |
| MGSDKIHHHHHHMISDIPFLALLPLGAHEYHGDHLPFETDWIIAEAFAKALTVKTKKQFHIALLPVEKIGYSIEHMDVSGTQTLTFSEAIERWINIGEDCYRKGIKRFLLLNAHGGNSPLMSIVITELRKRFSMLAVATSWTRFGLPHGLMHPSQHHLDIHGGFIETSLMLYLAPEKVHMEKAKNFYNKQADMIANYQYLRAYGPHAFGWTMRDLNLQGAAGKAREATSQAGKAIFSHVLGGLRGLLDDINRFKIDAL | not soluble |
